Data as given in paper PMC10146092, “Highly Sensitive β-Lactoglobulin Fluorescent Aptamer Biosensors Based on Tungsten Disulfide Nanosheets and DNase I-Assisted Signal Amplification”.

Columns and labels:
ovalbumin = ovalbumin (UniProt P01012 2-386); experiment: fluorescence recovery on WS2 nanosheets; 10 ug/mL protein; no significant recovery; 200 nM FAM-aptamer, 750 ug/mL WS2 (10 min, room temperature), then β-Lg with 0.04 U/uL DNase I, 40 min at 37 °C; ex 490/em 518 nm; buffer, salt and pH not given in the material; conditions: protein: commercial; label: 5'-FAM
[1] = target: T1, beta-lactoglobulin (β-Lg) (Bos taurus (cow's milk)?, UniProt P02754 17-178); experiment: fluorescence recovery on WS2 nanosheets (FRET quenching); no DNase I; WS2 nanosheets; LOD 35 ng/mL; 200 nM FAM-aptamer, 750 ug/mL WS2 (10 min, room temperature), then β-Lg with 0.04 U/uL DNase I, 40 min at 37 °C; ex 490/em 518 nm; buffer, salt and pH not given in the material; conditions: protein: commercial; chain copies: 2; label: 5'-FAM
T1 sequence: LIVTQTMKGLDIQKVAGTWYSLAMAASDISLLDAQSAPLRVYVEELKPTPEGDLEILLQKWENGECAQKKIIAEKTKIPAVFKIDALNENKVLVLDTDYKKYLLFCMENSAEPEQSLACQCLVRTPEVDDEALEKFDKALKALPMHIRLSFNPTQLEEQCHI

[2] = target: T1, beta-lactoglobulin (β-Lg); experiment: fluorescence recovery on WS2 nanosheets, DNase I amplified; DNase I; β-Lg 0.1-100 ug/mL; little fluorescence change, independent of β-Lg; 200 nM FAM-aptamer, 750 ug/mL WS2 (10 min, room temperature), then β-Lg with 0.04 U/uL DNase I, 40 min at 37 °C; ex 490/em 518 nm; buffer, salt and pH not given in the material; conditions: protein: commercial; chain copies: 2; label: 5'-FAM

ovalbumin, sequence (P01012 2-386): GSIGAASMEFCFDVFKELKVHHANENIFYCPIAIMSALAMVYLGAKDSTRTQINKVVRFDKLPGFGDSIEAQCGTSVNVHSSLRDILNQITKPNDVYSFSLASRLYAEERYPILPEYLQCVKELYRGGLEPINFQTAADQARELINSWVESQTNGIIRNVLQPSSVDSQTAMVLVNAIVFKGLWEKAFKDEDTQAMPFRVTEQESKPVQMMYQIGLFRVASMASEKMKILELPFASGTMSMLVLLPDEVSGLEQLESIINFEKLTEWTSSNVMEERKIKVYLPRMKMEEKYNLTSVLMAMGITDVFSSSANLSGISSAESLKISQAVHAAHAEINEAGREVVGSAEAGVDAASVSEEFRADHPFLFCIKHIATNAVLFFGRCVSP

B1: β-Lg aptamer (ssDNA)
DNA: CGACGATCGGACCGCAGTACCCACAGCCCCAACATCATGCCCATCCGTGTGTG
B1: no binding (ovalbumin); binds [1].

B2: negative control DNA sequence (ssDNA)
DNA: CTAAGTCTGAAACATTACAGCTTGCTACACGAGAAGAGCCGCACGAGAACCCT
B2: no binding [2].
